Data: patent US20100317541A1

Biological target: α3 subunit isoform of Na, K-ATPase (human) (UniProt P13637)
Test: Western blot of control lysate, antibody at 1:2000, chemiluminescence, band density by Alpha DigiDoc 1000

Row | Average density | Substance
1 | 41100 | α3 monoclonal antibody from Novus (Littleton, Colo.)
2 | 44600 | α3 monoclonal antibody from Sigma (St Louis, Mo.)
3 | 45200 | α3 monoclonal antibody from Affinity Bioreagents (Golden, Colo.)
